Results published in US20130189283A1.

Target: Kv1.3 voltage-gated potassium channel on T cells in human whole blood (human) (UniProt P22001)
Experiment: cell-based or functional assay

Chain of Kv1.3 voltage-gated potassium channel on T cells in human whole blood (human) (P22001 whole entry): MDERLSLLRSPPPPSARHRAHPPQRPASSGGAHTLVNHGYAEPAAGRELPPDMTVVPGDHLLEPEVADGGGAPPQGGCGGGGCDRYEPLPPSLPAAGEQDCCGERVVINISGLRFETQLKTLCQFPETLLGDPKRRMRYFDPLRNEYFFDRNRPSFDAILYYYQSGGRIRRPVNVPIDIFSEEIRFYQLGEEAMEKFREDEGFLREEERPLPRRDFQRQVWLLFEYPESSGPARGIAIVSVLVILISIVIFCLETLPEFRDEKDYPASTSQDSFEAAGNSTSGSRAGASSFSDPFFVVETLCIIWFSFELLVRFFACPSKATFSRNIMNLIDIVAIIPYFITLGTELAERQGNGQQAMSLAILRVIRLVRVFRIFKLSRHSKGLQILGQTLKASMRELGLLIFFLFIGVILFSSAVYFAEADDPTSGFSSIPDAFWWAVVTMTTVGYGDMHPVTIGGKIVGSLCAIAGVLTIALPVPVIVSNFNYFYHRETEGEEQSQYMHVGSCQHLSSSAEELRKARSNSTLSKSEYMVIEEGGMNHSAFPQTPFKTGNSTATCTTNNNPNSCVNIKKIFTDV

**Q.** With ShK(1-35) (peptide) as the substance, how does the Potency Relative to ShK (WB, IL2) read?
**A.** 1 fold

**Q.** What about the WB (IFNg) IC50 of the same substance?
**A.** 0.078 nM

**Q.** And the WB (IL-2) IC50?
**A.** 0.067 nM

**Q.** With 20 kDa-PEG-ShK (peptide) as the substance, how does the Potency Relative to ShK (WB, IL2) read?
**A.** 5.67 fold

**Q.** What about the WB (IFNg) IC50 of the same substance?
**A.** 0.84 nM

**Q.** And the WB (IL-2) IC50?
**A.** 0.38 nM

**Q.** With “Monovalent Fc/Fc-L10-ShK[2-35] heterodimer (Fc fusion)” as the substance, how does the Potency Relative to ShK (WB, IL2) read?
**A.** 32.1 fold

**Q.** And the WB (IFNg) IC50?
**A.** 5.2 nM

**Q.** And the WB (IL-2) IC50?
**A.** 2.15 nM
